Assay results as given in patent EP3741773A1 (City of Hope, dated 2020).

Molecular target: T1, meditope-enabled trastuzumab
T1 construct: after it there are no differences from the human heavy chain of trastuzumab; Full IgG was expressed; Labelled with Alexa dyes in FACS; also called TM; trastuzumab memab
Experiment: SPR

T1 sequence (heavy, as listed by the source, chain 1 of 2): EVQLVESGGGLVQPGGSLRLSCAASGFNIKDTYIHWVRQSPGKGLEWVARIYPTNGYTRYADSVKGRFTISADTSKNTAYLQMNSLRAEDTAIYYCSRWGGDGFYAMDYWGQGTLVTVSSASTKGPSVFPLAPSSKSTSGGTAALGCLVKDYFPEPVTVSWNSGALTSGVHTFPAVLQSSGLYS
T1 sequence (light, as listed by the source, chain 2 of 2): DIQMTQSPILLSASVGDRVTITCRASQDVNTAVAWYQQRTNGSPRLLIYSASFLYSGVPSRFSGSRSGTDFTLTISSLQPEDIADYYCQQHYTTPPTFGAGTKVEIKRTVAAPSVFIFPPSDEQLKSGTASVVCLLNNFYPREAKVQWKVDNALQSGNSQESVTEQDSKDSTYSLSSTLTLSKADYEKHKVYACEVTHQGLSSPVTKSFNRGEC

B1: Protein L (other)
chain: SEVTIKVNLIFADGKIQTAEFKGTFEEATAEAYRYAALLAKVNGEYTADLEDGGNHMNIKFAG
notes: also called Protein L (only); PpL
Kd: ~500 nM
